These are literature values, as cited in paper PMC4059402 (Chembiochem : a European journal of chemical biology, 2014).

For the data set the following is noted: with laurate.

B1: wild-type CYP102A1: long-chain fatty acid monoxygenase CYP102A1 (P450BM3) from B. megaterium (protein, UniProt P14779 1-1049, looked up)
Bifunctional cytochrome …: MTIKEMPQPKTFGELKNLPLLNTDKPVQALMKIADELGEIFKFEAPGRVTRYLSSQRLIKEACDESRFDKNLSQALKFVRDFAGDGLFTSWTHEKNWKKAHNILLPSFSQQAMKGYHAMMVDIAVQLVQKWERLNADEHIEVPEDMTRLTLDTIGLCGFNYRFNSFYRDQPHPFITSMVRALDEAMNKLQRANPDDPAYDENKRQFQEDIKVMNDLVDKIIADRKASGEQSDDLLTHMLNGKDPETGEPLDDENIRYQIITFLIAGHETTSGLLSFALYFLVKNPHVLQKAAEEAARVLVDPVPSYKQVKQLKYVGMVLNEALRLWPTAPAFSLYAKEDTVLGGEYPLEKGDELMVLIPQLHRDKTIWGDDVEEFRPERFENPSAIPQHAFKPFGNGQRACIGQQFALHEATLVLGMMLKHFDFEDHTNYELDIKETLTLKPEGFVVKAKSKKIPLGGIPSPSTEQSAKKVRKKAENAHNTPLLVLYGSNMGTAEGTARDLADIAMSKGFAPQVATLDSHAGNLPREGAVLIVTASYNGHPPDNAKQFVDWLDQASADEVKGVRYSVFGCGDKNWATTYQKVPAFIDETLAAKGAENIADRGEADASDDFEGTYEEWREHMWSDVAAYFNLDIENSEDNKSTLSLQFVDSAADMPLAKMHGAFSTNVVASKELQQPGSARSTRHLEIELPKEASYQEGDHLGVIPRNYEGIVNRVTARFGLDASQQIRLEAEEEKLAHLPLAKTVSVEELLQYVELQDPVTRTQLRAMAAKTVCPPHKVELEALLEKQAYKEQVLAKRLTMLELLEKYPACEMKFSEFIALLPSIRPRYYSISSSPRVDEKQASITVSVVSGEAWSGYGEYKGIASNYLAELQEGDTITCFISTPQSEFTLPKDPETPLIMVGPGTGVAPFRGFVQARKQLKEQGQSLGEAHLYFGCRSPHEDYLYQEELENAQSEGIITLHTAFSRMPNQPKTYVQHVMEQDGKKLIELLDQGAHFYICGDGSQMAPAVEATLMKSYADVHQVSEADARLWLQQLEEKGRYAKDVWAG
Consider B1, for which the catalytic rate is reported as 1,680 min^−1.
